Test results from patent publication WO2018135651A1 (dated 2018).

Biological target: T1, Human survivin (1-142 aa, N-terminal calmodulin tag, recombinant, #SUR0801, ATGen Co., Ltd.) (human, UniProt O15392 1-142)
T1 construct: range 1-142; Bought recombinant protein, used in solution at 100, 10 and 1 ng/mL; also called antigen; not shown: N-terminal calmodulin tag of the bought product
Test: sandwich ELISA; VHH-STM complex adsorbed to the plate as capture, survivin in solution, detection with rabbit anti-survivin polyclonal antibody

T1 sequence (O15392 whole entry, the tested form may be a part): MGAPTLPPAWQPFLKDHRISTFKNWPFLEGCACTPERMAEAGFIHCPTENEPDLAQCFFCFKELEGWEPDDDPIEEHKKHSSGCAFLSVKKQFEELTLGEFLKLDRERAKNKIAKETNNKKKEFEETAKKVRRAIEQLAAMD

B1: VHH-STM complex (antibody complex consisting of an anti-human survivin VHH antibody and a stefin A mutant) (VHH)
VHH: EVQLVESGGGSVQAGGSLRLSCAASGVSNTDMIMIWFRQAPGKEREGVLAAIYKNSTYYADSVKGRFTISQDNAKNTVYLQMNSLKPEDTAIYYCAAIRAVIGRHIRPHIYWGQGTQVTVSS
notes: Single-chain fusion: anti-human survivin VHH, linker, stefin A mutant (STM), His tag, C-terminal Cys; Secreted from Brevibacillus choshinensis and Ni-NTA purified; Adsorbed directly to the plate as capture reagent; also called VHH-STM conjugate; VHH antibody-STM conjugate
binding result: binds
